Our source for the Km values is publication PMC4078364, “Complete sucrose hydrolysis by heat-killed recombinant Pichia pastoris cells entrapped in calcium alginate” (Microbial Cell Factories, 2014).

Substrate in this data set: OC[C@H]1O[C@@](CO)(O[C@H]2O[C@H](CO)[C@@H](O)[C@H](O)[C@H]2O)[C@@H](O)[C@@H]1O
The data set can be described thus: DNSA reducing sugar assay, initial rates, Lineweaver-Burk. The format is cell-based, Thermotoga maritima. To be noted: free (non-immobilized) heat-killed P. pastoris cells with periplasmic enzyme, 10-200 mM sucrose, 50 mM sodium acetate pH 5.5, 60 °C, cell-wall diffusion barrier.

B1: BfrA (Thermotoga maritima β-fructosidase) (Thermotoga maritima MSB8) (protein)
chain: MFKPNYHFFPITGWMNDPNGLIFWKGKYHMFYQYNPRKPEWGNICWGHAVSDDLVHWRHLPVALYPDDETHGVFSGSAVEKDGKMFLVYTYYRDPTHNKGEKETQCVAMSENGLDFVKYDGNPVISKPPEEGTHAFRDPKVNRSNGEWRMVLGSGKDEKIGRVLLYTSDDLFHWKYEGVIFEDETTKEIECPDLVRIGEKDILIYSITSTNSVLFSMGELKEGKLNVEKRGLLDHGTDFYAAQTFFGTDRVVVIGWLQSWLRTGLYPTKREGWNGVMSLPRELYVENNELKVKPVDELLALRKRKVFETAKSGTFLLDVKENSYEIVCEFSGEIELRMGNESEEVVITKSRDELIVDTTRSGVSGGEVRKSTVEDEATNRIRAFLDSCSVEFFFNDSIAFSFRIHPENVYNILSVKSNQVKLEVFELENIWL
notes: secreted to periplasm of Pichia pastoris PpBfrA(4x); N-glycosylated, 58 and 53 kDa (51 kDa deglycosylated); assayed in heat-killed whole cells
Broadly, the Km is the substrate concentration at which the rate is half of its maximum. As for B1, the Michaelis constant (Km) is 99 mM.
